Assay results taken from publication PMC6635492, “Structural basis for the adsorption of a single-stranded RNA bacteriophage” (Nature Communications, 2019).

Molecular target: the molecule itself
Assay: cryo-EM structure; single-particle cryo-EM of MS2 virions incubated with purified F-pili for 30 min at 37 °C; grids tilted 0°, 15° or 30°; maps at 5.0 Å (whole complex), 6.2 Å (F-pilus/Mat, local mask) and 5.6 to 7.3 Å (three classes)

B1: F-pilin, subunit of the E. coli F-pilus encoded by the pOX38 plasmid (natural protein, E. coli (pOX38 plasmid), UniProt P04737 52-121, looked up)
chain: AGSSGQDLMASGNTTVKATFGKDSSVVKWVVLAEVLVGAVMYMMTKNVKFLAGFAIISVFIAVGMAVVGL
notes: F-pilin of the pOX38 (F) plasmid, mature pilin; its first five residues are printed as AGSSG; assembled as a five-start helical filament with one phospholipid per pilin; initial model PDB 5LER. numbers count on: the mature protein; Stood in the assay as the assembled filament (stoichiometric pilin-phospholipid complex); the number of subunits is not fixed; source: on the cells for cryo-ET
B1: binds.
